Source: patent publication US20250381289A1 (Genmab, published 2025)

Key:
[1] = molecular target: T1, cMET on EGFR and cMET co-expressed tumor cell lines (UniProt P08581 25-1390, limits assumed); assay: flow cytometry, SW620 cells (named among the EGFR and cMET co-expressing lines; both arms contribute)
T1 construct: whole, on cells

[2] = molecular target: T2, EGFR on EGFR and cMET co-expressed tumor cell lines (UniProt P00533 25-1210, limits assumed); assay: as above
T2 construct: whole, on cells

[3] = molecular target: T3, Human EGFR (human, UniProt P00533); assay: ELISA, coated human EGFR, anti-human Fc-HRP
T3 construct: recombinant protein; also called human EGFR recombinant protein

[4] = molecular target: T1, cMET on EGFR and cMET co-expressed …; assay: flow cytometry on SNU-5 cells (co-express EGFR and cMET), PE anti-human Fc; signal of the whole bispecific, not resolved by arm
Target sequence in this assay (P08581 25-1390 limits assumed): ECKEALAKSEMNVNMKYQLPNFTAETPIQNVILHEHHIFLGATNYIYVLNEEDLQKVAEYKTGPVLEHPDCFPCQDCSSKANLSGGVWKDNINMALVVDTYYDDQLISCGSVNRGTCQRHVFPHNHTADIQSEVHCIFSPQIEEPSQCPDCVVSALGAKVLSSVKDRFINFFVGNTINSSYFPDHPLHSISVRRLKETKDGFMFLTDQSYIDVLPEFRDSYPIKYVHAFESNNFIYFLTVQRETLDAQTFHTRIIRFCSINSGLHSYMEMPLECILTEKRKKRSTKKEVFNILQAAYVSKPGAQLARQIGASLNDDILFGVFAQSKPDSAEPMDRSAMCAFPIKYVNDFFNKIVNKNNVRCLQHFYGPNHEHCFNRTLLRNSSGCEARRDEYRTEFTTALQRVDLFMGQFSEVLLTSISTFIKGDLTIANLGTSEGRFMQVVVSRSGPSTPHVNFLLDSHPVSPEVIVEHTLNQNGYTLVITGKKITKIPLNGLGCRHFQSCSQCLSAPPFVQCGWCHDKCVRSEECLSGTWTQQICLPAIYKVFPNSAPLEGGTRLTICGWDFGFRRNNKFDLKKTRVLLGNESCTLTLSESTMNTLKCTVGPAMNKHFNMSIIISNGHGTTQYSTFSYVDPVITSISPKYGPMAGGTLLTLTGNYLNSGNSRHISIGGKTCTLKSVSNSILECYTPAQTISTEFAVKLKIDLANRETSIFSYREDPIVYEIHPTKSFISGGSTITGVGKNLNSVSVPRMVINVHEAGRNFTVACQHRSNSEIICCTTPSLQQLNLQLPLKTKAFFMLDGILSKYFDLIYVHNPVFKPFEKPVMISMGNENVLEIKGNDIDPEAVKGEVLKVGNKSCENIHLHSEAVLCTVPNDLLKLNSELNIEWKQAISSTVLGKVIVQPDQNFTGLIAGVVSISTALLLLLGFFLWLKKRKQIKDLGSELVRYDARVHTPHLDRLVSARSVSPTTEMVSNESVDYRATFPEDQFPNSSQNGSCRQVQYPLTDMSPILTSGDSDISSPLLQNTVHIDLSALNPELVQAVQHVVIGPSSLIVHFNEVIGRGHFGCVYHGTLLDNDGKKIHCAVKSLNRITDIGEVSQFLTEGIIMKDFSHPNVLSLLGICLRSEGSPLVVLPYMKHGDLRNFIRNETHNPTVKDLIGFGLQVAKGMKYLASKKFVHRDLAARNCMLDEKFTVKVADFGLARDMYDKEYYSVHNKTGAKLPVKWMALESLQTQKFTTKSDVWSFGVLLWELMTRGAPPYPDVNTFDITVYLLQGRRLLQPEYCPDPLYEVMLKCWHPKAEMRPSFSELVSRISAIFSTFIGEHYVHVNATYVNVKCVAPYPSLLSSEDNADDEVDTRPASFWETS

[5] = molecular target: T2, EGFR on EGFR and cMET co-expressed …; assay: as above
[6] = molecular target: T4, Human cMET; assay: ELISA, plate coated with 100 ng/well human cMET recombinant protein, HRP anti-human Fc, OD450
T4 construct: also called human cMET recombinant protein
T4 chain: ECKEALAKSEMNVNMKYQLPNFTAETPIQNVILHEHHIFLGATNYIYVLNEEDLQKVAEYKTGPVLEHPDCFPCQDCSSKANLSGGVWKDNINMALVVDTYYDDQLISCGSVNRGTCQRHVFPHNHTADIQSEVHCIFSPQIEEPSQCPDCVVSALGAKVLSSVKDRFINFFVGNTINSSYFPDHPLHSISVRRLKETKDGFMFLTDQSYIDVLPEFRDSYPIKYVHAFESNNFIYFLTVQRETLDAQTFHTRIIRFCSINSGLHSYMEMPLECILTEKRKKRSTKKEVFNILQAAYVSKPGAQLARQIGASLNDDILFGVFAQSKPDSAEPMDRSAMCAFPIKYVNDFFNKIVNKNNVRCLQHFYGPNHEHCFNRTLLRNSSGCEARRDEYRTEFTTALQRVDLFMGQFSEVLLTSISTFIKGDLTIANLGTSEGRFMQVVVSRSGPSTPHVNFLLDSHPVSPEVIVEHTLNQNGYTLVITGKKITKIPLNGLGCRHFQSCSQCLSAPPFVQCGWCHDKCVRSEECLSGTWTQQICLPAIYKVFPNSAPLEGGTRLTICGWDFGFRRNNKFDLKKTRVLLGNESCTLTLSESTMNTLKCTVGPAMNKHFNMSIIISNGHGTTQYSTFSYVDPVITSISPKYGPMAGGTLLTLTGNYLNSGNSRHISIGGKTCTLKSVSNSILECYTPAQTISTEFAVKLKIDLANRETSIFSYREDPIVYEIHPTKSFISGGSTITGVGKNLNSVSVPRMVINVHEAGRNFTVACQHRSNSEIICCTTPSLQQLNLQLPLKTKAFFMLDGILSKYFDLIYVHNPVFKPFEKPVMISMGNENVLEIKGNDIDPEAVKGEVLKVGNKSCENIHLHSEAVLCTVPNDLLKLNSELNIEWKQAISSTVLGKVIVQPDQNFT

[7] = molecular target: T1, cMET on EGFR and cMET co-expressed …; assay: flow cytometry, MKN-45 cells (co-express EGFR and cMET; both arms contribute)
Target sequence in this assay (P08581 25-1390 limits assumed): as the sequence (P08581 25-1390 limits assumed) above

[8] = molecular target: T2, EGFR on EGFR and cMET co-expressed …; assay: as above
[9] = molecular target: T1, cMET on EGFR and cMET co-expressed …; assay: flow cytometry, A549 cells (co-express EGFR and cMET; both arms contribute)
[10] = molecular target: T2, EGFR on EGFR and cMET co-expressed …; assay: as above
[11] = molecular target: T5, human cMET-Fc (human, UniProt P08581 25-932); assay: blocking ELISA: coated human cMET-Fc, antibody titrated, then human HGF-His (blocked ligand), anti-His-HRP
T5 construct: not shown: Fc part, not described

[12] = molecular target: T1, cMET on EGFR and cMET co-expressed …; assay: flow cytometry, MKN-45 cells (co-express EGFR and cMET; both arms contribute); remark: listed apart in the source
Target sequence in this assay (P08581 25-1390 limits assumed): as the sequence (P08581 25-1390 limits assumed) above

[13] = molecular target: T2, EGFR on EGFR and cMET co-expressed …; assay: as above; remark: listed apart in the source
[14] = molecular target: T1, cMET on EGFR and cMET co-expressed …; assay: flow cytometry, NCI-N87 cells (co-express EGFR and cMET; both arms contribute)
Target sequence in this assay (P08581 25-1390 limits assumed): as the sequence (P08581 25-1390 limits assumed) above

[15] = molecular target: T2, EGFR on EGFR and cMET co-expressed …; assay: as above
[16] = molecular target: T1, cMET on EGFR and cMET co-expressed …; assay: flow cytometry, HCC-827 cells (co-express EGFR and cMET; both arms contribute)
[17] = molecular target: T2, EGFR on EGFR and cMET co-expressed …; assay: as above

B1: Amivantamab (bispecific antibody, human IgG1, kappa)
heavy 1: not shown
light 1: not shown
heavy 2: not shown
light 2: DIQMTQSPSSVSASVGDRVTITCRASQGISNWLAWFQHKPGKAPKLLIYAASSLLSGVPSRFSGSGSGTDFTLTISSLQPEDFATYYCQQANSFPITFGQGTRLEIKRTVAAPSVFIFPPSDEQLKSGTASVVCLLNNFYPREAKVQWKVDNALQSGNSQESVTEQDSKDSTYSLSSTLTLSKADYEKHKVYACEVTHQGLSSPVTKSFNRGEC
notes: Bispecific positive control
EC50 (read off the curve) [1]: ~0.2 nM
EC50 (read off the curve) [2]: ~0.2 nM
EC50 (read off the curve) [3]: ~0.6 nM
EC50 (read off the curve) [4]: ~3 nM
EC50 (read off the curve) [5]: ~3 nM
EC50 (read off the curve) [6]: ~0.1 nM
EC50 (read off the curve) [7]: ~0.5 nM
EC50 (read off the curve) [8]: ~0.5 nM
EC50 (read off the curve) [9]: ~1 nM
EC50 (read off the curve) [10]: ~1 nM
IC50 (read off the curve) [11]: ~0.8 nM
EC50 (read off the curve) [12]: ~2 nM
EC50 (read off the curve) [13]: ~2 nM
EC50 (read off the curve) [14]: ~2 nM
EC50 (read off the curve) [15]: ~2 nM
EC50 (read off the curve) [16]: ~3 nM
EC50 (read off the curve) [17]: ~3 nM
